Series [1] deals with nucleosome (NCP) with fluorescein-labelled DNA, for fluorescence polarization (human). The experiment in a line: fluorescence polarisation; increasing amounts of CHD4 PHD1/2, PHD1 or PHD2 added to 5 nM nucleosomes with fluorescein-labelled DNA; 15 mM Tris pH 7.5, 75 mM NaCl, 0.00625% Tween20, 3 mM DTT; apparent. (Fluorescence polarisation rises when a labelled molecule tumbles more slowly, as on binding a larger partner.)

Series [2] relates to CHD4 PHD1/2. The experiment in a line: FRET (nucleosome unwrapping). As to conditions: 1.4 uM LexA present, FP: 15 mM Tris pH 7.5, 75 mM NaCl, 0.00625% Tween20, 3 mM DTT, 5 nM NCP, FRET: 15 mM Tris pH 7.5, 1 mM EDTA, 0.00625% Tween20, 25 nM NCP, NMR: ….
A further series concerns LexA. Description: FRET (nucleosome unwrapping). To be noted: FP: 15 mM Tris pH 7.5, 75 mM NaCl, 0.00625% Tween20, 3 mM DTT, 5 nM NCP, FRET: 15 mM Tris pH 7.5, 1 mM EDTA, 0.00625% Tween20, 25 nM NCP, NMR: ….
The test system of series [3] is CHD4 PHD1/2. Description: fluorescence polarization. As to conditions: 75 mM NaCl, apparent Kd, FP: 15 mM Tris pH 7.5, 75 mM NaCl, 0.00625% Tween20, 3 mM DTT, 5 nM NCP, FRET: 15 mM Tris pH 7.5, 1 mM EDTA, 0.00625% Tween20, 25 nM NCP, NMR: ….

CHD4 PHD1/2 (aa 361–503), sequence (Q14839 361-503): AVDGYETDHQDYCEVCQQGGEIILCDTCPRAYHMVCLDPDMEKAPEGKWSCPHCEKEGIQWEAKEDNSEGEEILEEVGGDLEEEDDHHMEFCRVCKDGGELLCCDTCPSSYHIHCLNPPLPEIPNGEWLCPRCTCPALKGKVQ

In the case of “CHD4 PHD1/2 (aa 361–503) (from UniProt Q14839 361-503) (domain or fragment)”, in series [1], the Kd is 0.63 µM.
As to Cy3-Cy5-NCP, 601 L with LexA site, the figures for the K half with CHD4 PHD1/2 [2] and in the series on LexA were 32 µM and 1400 nM, respectively.
With Fluorescein-NCP, 601 L with LexA site, the Kd with CHD4 PHD1/2 [3] is 0.63 µM.
